Results taken from the RNAGym collection of RNA variant scans (doi:10.1101/gr.219683.116).

B1: mRNA-splicing (parent)
chain: AGUUGCUGCUGGGAGCUCCAGCACAGUGAAAUGGACAGAAGGGCAGAGCAA

Variants of: B1
Test: exon inclusion enrichment index; higher = more inclusion; WT1 exon 5 minigene, HEK293

Variant	exon inclusion enrichment index
G5C C6G U7C U10C C24G A25C	4.6
G5C C6G U7C U10C C24G A25U	3.91
G5C C6G U7C U10C C24G A25G	2.96
G5C C6G U7C U10C A20G G21A	3.62
G5C C6G U7C U10C A20G G21C	2.95
G5C C6G U7C U10C A20G G21U	2.65
G5C C6G U7C U10C A47C G48C	2.99
G5C C6G U7C U10C A47C G48A	1.78
G5C C6G U7C U10C A47C G48U	2.62
G5C C6A U7C G8C C9U U10A	0.107
G5C C6A U7C G8C C9U U10C	1.98
G5C C6G U7C G8U U10C	2.76
G5C C6G U7C U10C G11U G12U	1.49
G5C C6G U7C U10C G11U G12C	1.54
G5C C6G U7C U10C G11U G12A	1.11
G5C C6G U7A G8U U10C	2.93
G5C C6G U7C G8U C9A U10C	2.74
G5C C6G U7C U10C C44G A45C	5.06
G5C C6G U7C U10C C44G A45G	1.17
G5C C6G U7C U10C C44G A45U	3.36
G5C C6G U7C U10C G13A	3.34
G5C C6G U7C U10C C22A	3.06
G5C C6G U7C U10C C22U	3.4
G5C C6G U7C U10C C22G	3.75

Variant	exon inclusion enrichment index
G5C C6A U7C U10A	0.259
G5C C6A U7C U10C	3.16
G5C C6G U7C U10C C16U	4.22
G5C C6G U7C U10C C16A	4.33
G5C C6G U7C U10C C16G	2.97
G5C C6G U7C U10C G12A	2.53
G5C C6G U7C U10C G12U	1.53
G5C C6G U7C U10C G12C	0.252
G5C C6G U7C G8U C9U U10C	2.82
G5C C6G U7C C9A U10A	1.93
G5C C6G U7C C9A U10C	4
G5C C6G U7C C9A U10G	1.77
G5C C6G U7C U10C A25G G26C	4.8
G5C C6G U7C U10C A25G G26A	5.6
G5C C6G U7C U10C A25G G26U	4.09
G5C C6G U7C U10C C36G	3.17
G5C C6G U7C U10C C36U	1.33
G5C C6G U7C U10C C36A	2.93
G5C C6G U7C U10C	3.75
G5C C6G U7C U10A	1.02
G5C C6G U7C U10C C16U U17C	2.87
G5C C6G U7C U10C C16U U17G	3.07
G5C C6G U7C U10C C16U U17A	3.78
G5C C6G U7A C9A U10A	0.95

Variant	exon inclusion enrichment index
G5C C6G U7C U10C G12A G13A	1.51
G5C C6G U7C U10C G12A G13U	0.589
G5C C6G U7C U10C G12A G13C	1.55
G5C C6G G8C U10C	3.08
G5C C6G U7C U10A G11A	2.25
G5C C6G U7C U10A G11C	3.41
G5C C6G U7C U10A G11U	3.26
G5C C6G U7C U10C A14U G15U	1.46
G5C C6G U7C U10C A14U G15C	1.8
G5C C6G U7C U10C A14U G15A	1.41
G5C C6G U7C U10C A37U G38U	1.52
G5C C6G U7C U10C A37U G38A	1.78
G5C C6G U7C U10C A37U G38C	2.27
G5C C6G U7A G8C U10C	2.57
G5C C6G U7C U10C C24U A25G	4.57
G5C C6G U7C U10C C24U A25U	3.01
G5C C6G U7C U10C C24U A25C	4.56
G5C C6G U7A U10C	2.53
G5C C6G U7C U10C A39U A40G	1.59
G5C C6G U7C U10C A39U A40U	1.88
G5C C6G U7C U10C A39U A40C	3.55
G5C C6G U7C U10C A35U	1.25
G5C C6G U7C U10C A35G	1.93
G5C C6G U7C U10C A35C	1.69

Variant	exon inclusion enrichment index
G5C C6G U7C U10C A14C	1.99
G5C C6G U7C U10C A14G	1.93
G5C C6G U7C U10C A14U	1.05
G5C C6G U7C U10C A37G G38U	1.81
G5C C6G U7C U10C A37G G38A	2.92
G5C C6G U7C U10C A37G G38C	3.22
G5C C6G U7C U10C C36A A37U	2.07
G5C C6G U7C U10C C36A A37C	3.59
G5C C6G U7C U10C C36A A37G	2.14
G5C C6G U7C U10C A20C G21C	2.03
G5C C6G U7C U10C A20C G21U	2.17
G5C C6G U7C U10C A20C G21A	1.97
G5C C6G U7C U10C C24A	3.28
G5C C6G U7C U10C C24U	1.76
G5C C6G U7C U10C C24G	4.23
G5C C6G U7C U10C A31U	3.18
G5C C6G U7C U10C A31G	3.79
G5C C6G U7C U10C A31C	3.8
G5C C6G U7C G11A	0.993
G5C C6G U7C G11C	2.28
G5C C6G U7C G11U	2.67
G5C C6A U7C G8U U10A	0.146
G5C C6G U7C U10C A35U C36A	0.0112
G5C C6G U7C U10C A35U C36G	0.445

Variant	exon inclusion enrichment index
G5C C6G U7C U10C A35U C36U	0.0671
G5C C6G U7C U10C A14C G15C	1.16
G5C C6G U7C U10C A14C G15U	1.33
G5C C6G U7C U10C A14C G15A	1.07
G5C C6A U7C G8U C9G U10A	0.381
G5C C6G U7C U10C C22A A23U	2.83
G5C C6G U7C U10C C22A A23C	3.98
G5C C6G U7C U10C C22A A23G	3.83
G5C C6G U7C U10C C44U	1.47
G5C C6G U7C U10C C44G	4.42
G5C C6G U7C U10C C44A	4.17
G5C C6G U7C U10C G11A	2.79
G5C C6G U7C U10C G11C	2.92
G5C C6G U7C U10C G11U	3.33
G5C C6G U7C U10C A45G	5.32
G5C C6G U7C U10C A45U	4.56
G5C C6G U7C U10C A45C	3.17
G5C C6G U7C G8A C9G U10C	2.31
G5C C6G U7C U10C A47U	3.3
G5C C6G U7C U10C A47C	3.06
G5C C6G U7C U10C A47G	0.871
G5C C6G U7C C9G U10C	2.62
G5C C6G U7C C9G U10A	2.85
G5C C6G U7C C9G U10G	0.749

Variant	exon inclusion enrichment index
G5C C6G U7C U10C C19A A20C	2.85
G5C C6G U7C U10C C19A A20G	0.953
G5C C6G U7C U10C C19A A20U	1.52
G5C C6G U7C U10C A39C A40C	3.63
G5C C6G U7C U10C A39C A40G	3.52
G5C C6G U7C U10C A39C A40U	1.72
G5C C6G U7C U10C A39C	1.45
G5C C6G U7C U10C A39U	0.26
G5C C6G U7C U10C A39G	2.45
G5C C6G U7C U10C G12U G13U	0.206
G5C C6G U7C U10C G12U G13A	0.404
G5C C6G U7C U10C G12U G13C	0.741
G5C C6A U7C G8C C9G U10A	2.51
G5C C6G U7C U10C C22G A23C	2.56
G5C C6G U7C U10C C22G A23U	1.01
G5C C6G U7C U10C C22G A23G	2.57
G5C C6G U7C C9A	2.73
G5C C6G U7C C9G	1.96
G5C C6G U7C C9U	2.47
G5C C6A U7G G8C U10A	0.0276
G5C C6G U7C G8C C9A U10C	3.14
G5C C6G U7C U10C A47U G48U	3.16
G5C C6G U7C U10C A47U G48A	3.03
G5C C6G U7C U10C A47U G48C	2.42

Variant	exon inclusion enrichment index
G5C C6A U7C G8U C9A U10A	0.0885
G5C C6G U7C U10C C36U A37G	2.77
G5C C6G U7C U10C C36U A37C	2.78
G5C C6G U7C U10C C36U A37U	2.2
G5C C6A U7G G8U U10A	0.00932
G5C C6A U7G C9A	0.352
G5C C6G U7C U10C A31G U32A	5.21
G5C C6G U7C U10C A31G U32G	2.67
G5C C6G U7C U10C A31G U32C	4.5
G5C C6G U7C U10C A23G C24G	4.88
G5C C6G U7C U10C A23G C24U	1.96
G5C C6G U7C U10C A23G C24A	4.41
G5C C6G U7C C9U U10G	1.02
G5C C6G U7C C9U U10C	3.88
G5C C6G U7C C9U U10A	0.144
G5C C6G U7C U10C A30U A31G	3.75
G5C C6G U7C U10C A30U A31C	3.11
G5C C6G U7C U10C A30U A31U	3.18
G5C C6A U10A	0.116
G5C C6A U10C	1.97
G5C C6G U7C G8A C9A U10C	3.14
G5C C6G U7C U10C G13A A14C	3.48
G5C C6G U7C U10C A45G G46A	6.29
